Percent of input pulled down data for 1 molecule are collected here from paper PMC4632715.

In the experiment the target is FN3 monobody 2C12 (binder of MAP2K5), purified FLAG-tagged protein. Kind of experiment: pull-down; 1 pmol each of four purified biotinylated targets spiked into HeLa cell lysate (10 µg), 10 pmol purified FLAG-tagged monobody, 2 h 4 °C; captured on anti-FLAG magnetic beads, RIPA washes; blot probed with streptavidin-IR dye.

B1: mitogen-activated protein kinase kinase 5 (MAP2K5), amino acids 5-108 (domain or fragment)
chain: ALGPFPAMENQVLVIRIKIPNSGAVDWTVHSGPQLLFRDVLDVIGQVLPEATTTAFEYEDEDGDRITVRSDEEMKAMLSYYYSTVMEQQVNGQLIEPLQIFPRA
modifications: biotin (Avitag, in vivo); a non-biotinylated form served as soluble competitor
Take B1: the percent of input pulled down is 33%.
